Experimental findings from article PMC12520357 (2025) are described below.

B1: Reg1-FLAG (wild type) [S. cerevisiae] / Snf1-GFP [S. cerevisiae] (parent complex)
chain 1: MSTNLANYFAGKKDIENEHVNRNASHESNSKSDVKISGNDNDNDEDMGPSVSMAVQAKNDDDFHKSTFNLKRTRSMGLLDEYIDPTKKLLGRSDDLYDNDNEYYDNSSNNSSSNSSDDDYDDGYQEHSTSVSPPPADNDSYLIPQDDNDVVVEPERHVDYLSHEWKESEISNSWKYIILKKKKRDVDLVNAARLENASWRTWAKARNNLKTVSPEVVNWSKDSDVTWLYGPIVRDSEGNAQSEEEHDLERGYGSDDENSKRISMPTKNSKSIAAAPKPILKKRTVTEIIEDNALWKLNEARKHMTEMKHASVIMDPNGNKNVHDDFDALAAQVNAQYYHYPKESNSSVSLKSQHSDKKDNSTIPNPVGENSNGGGDKGEEDLHLKSALHVQNNRSTAQSNKSILENSTNDRKANLDQNLNSPDNNRFPSSTSSSNRDNENNSMGLSSILTSNPSEKSNKPTKNRHIHFNDRVEQCMALRYPASQSEDDESDDENKQYVDVNNNANVTTINNNRTPLLAIQHKSIPINSATEHLNKNTSDDDTSSQSSSSSHSDDEEHGGLYINARFSRRSDSGVHSPITDNSSVASSTTSRAHVRPIIKLLPDTTLNYGSDEESDNGEFNGYGNAVSHNVNTSRGYDYIYDYNSVYTGDTSSFLPVDSCDIVDVPEGMDLQTAIADDNASNYEFNNAVESKEKHVPQLHKASANNTTRQHGSHMLLYDDDNYSSSSDSEQQFIEDSQYNSSDDEEEEDDDDQEVDDNHDEGLSLRRTLSLGKSGSTNSLYDLAQPSLSSATPQQKNPTNFTGGKTDVDKDAQLAVRPYPLKRNSSSGNFIFNSDSEEESSSEEEQRPLPANSQLVNRSVLKGSVTPANISSQKKKALPKQPKASDSSQSFRIVNNTPSPAEVGASDVAIEGYFSPRNESIKSVVSGGNMMDHQDHSEMDTLAKGFENCHINNASKLKDKKVDSVQTTRKEASLTDSSNESLHKVVQNARGMASKYLHSWKKSDVKPQENGNDSS
chain 2: MSSNNNTNTAPANANSSHHHHHHHHHHHHHGHGGSNSTLNNPKSSLADGAHIGNYQIVKTLGEGSFGKVKLAYHTTTGQKVALKIINKKVLAKSDMQGRIEREISYLRLLRHPHIIKLYDVIKSKDEIIMVIEYAGNELFDYIVQRDKMSEQEARRFFQQIISAVEYCHRHKIVHRDLKPENLLLDEHLNVKIADFGLSNIMTDGNFLKTSCGSPNYAAPEVISGKLYAGPEVDVWSCGVILYVMLCRRLPFDDESIPVLFKNISNGVYTLPKFLSPGAAGLIKRMLIVNPLNRISIHEIMQDDWFKVDLPEYLLPPDLKPHPEEENENNDSKKDGSSPDNDEIDDNLVNILSSTMGYEKDEIYESLESSEDTPAFNEIRDAYMLIKENKSLIKDMKANKSVSDELDTFLSQSPPTFQQQSKSHQKSQVDHETAKQHARRMASAITQQRTYHQSPFMDQYKEEDSTVSILPTSLPQIHRANMLAQGSPAASKISPLVTKKSKTRWHFGIRSRSYPLDVMGEIYIALKNLGAEWAKPSEEDLWTIKLRWKYDIGNKTNTNEKIPDLMKMVIQLFQIETNNYLVDFKFDGWESSYGDDTTVSNISEDEMSTFSAYPFLHLTTKLIMELAVNSQSN
B2: Reg1-FLAG (wild type) [S. cerevisiae] / Glc7-GFP [S. cerevisiae] (parent complex)
chain 1: B1 chain 1
chain 2: MDSQPVDVDNIIDRLLEVRGSKPGQQVDLEENEIRYLCSKARSIFIKQPILLELEAPIKICGDIHGQYYDLLRLFEYGGFPPESNYLFLGDYVDRGKQSLETICLLLAYKIKYPENFFILRGNHECASINRIYGFYDECKRRYNIKLWKTFTDCFNCLPIAAIIDEKIFCMHGGLSPDLNSMEQIRRVMRPTDIPDVGLLCDLLWSDPDKDIVGWSENDRGVSFTFGPDVVNRFLQKQDMELICRAHQVVEDGYEFFSKRQLVTLFSAPNYCGEFDNAGAMMSVDESLLCSFQILKPAQKSLPRQAGGRKKK

Variants of B1 are the subject of the first test. The test is described as follows: co-immunoprecipitation (anti-FLAG IP, immunoblot quantification); n = 3; reg1Δ Snf1-GFP Glc7-GFP cells; parent: 1; read off a plot.
Regarding chain 1 P231S, the ratio to parent is about 1.1. Same read-out and setting: the result for chain 1 A54T reads about 0.84; that for chain 1 P278Q, about 0.95. For the variant chain 1 N624S, the ratio to parent is about 0.74. Same read-out and setting: the value for chain 1 W165G was about 0.8.

Variants of B2 are the subject of another test. The description is as above.
As to chain 1 A54T, the ratio to parent was about 0.93. Same read-out and setting: the value for chain 1 P278Q was about 0.8; that for chain 1 N624S was about 1.5. Still for that read-out and setting: the result for chain 1 P231S reads about 0.81; that for chain 1 W165G, about 0.66.
